Measurements reported in US20040005333A1 (HER MAJESTY THE QUEEN IN RIGHT OF CANADA AS REPRESENTED BY …, published 2004).

Tests used:
human C1q protein = target: T1, human C1q protein (human, UniProt P02745 23-245; P02746 28-253; P02747 29-245); test: ELISA on strips coated with human C1q, HRP-anti-human Ab detection
T1 construct: also called human C1q complement

protein G agarose = protein G agarose (UniProt P06654 228-352); test: protein G agarose precipitation, SDS-PAGE with Coomassie staining
Sequence of protein G agarose (P06654 228-352): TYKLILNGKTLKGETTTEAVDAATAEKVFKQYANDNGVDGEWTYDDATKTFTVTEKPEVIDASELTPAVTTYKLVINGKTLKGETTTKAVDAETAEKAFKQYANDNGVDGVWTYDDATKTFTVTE

T1 sequence (P02745 23-245 limits assumed, chain 1 of 3): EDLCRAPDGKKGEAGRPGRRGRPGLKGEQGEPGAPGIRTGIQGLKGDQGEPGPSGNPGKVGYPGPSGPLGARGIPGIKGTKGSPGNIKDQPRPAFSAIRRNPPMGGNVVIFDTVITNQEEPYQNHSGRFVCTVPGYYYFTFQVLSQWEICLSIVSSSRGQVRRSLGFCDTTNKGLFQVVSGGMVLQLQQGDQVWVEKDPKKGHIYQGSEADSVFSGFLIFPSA
T1 sequence (P02746 28-253 limits assumed, chain 2 of 3): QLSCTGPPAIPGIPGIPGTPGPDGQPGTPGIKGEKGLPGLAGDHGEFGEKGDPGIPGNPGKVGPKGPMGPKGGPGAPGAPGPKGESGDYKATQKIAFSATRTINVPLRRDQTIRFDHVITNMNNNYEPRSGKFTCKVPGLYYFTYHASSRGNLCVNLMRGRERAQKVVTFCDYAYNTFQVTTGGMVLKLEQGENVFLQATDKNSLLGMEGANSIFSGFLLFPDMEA
T1 sequence (P02747 29-245 limits assumed, chain 3 of 3): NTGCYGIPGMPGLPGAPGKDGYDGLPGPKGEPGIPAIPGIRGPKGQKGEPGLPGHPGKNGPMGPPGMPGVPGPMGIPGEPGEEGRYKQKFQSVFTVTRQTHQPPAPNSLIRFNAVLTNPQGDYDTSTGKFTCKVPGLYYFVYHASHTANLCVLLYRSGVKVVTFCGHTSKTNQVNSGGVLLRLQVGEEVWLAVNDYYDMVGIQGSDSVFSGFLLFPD

Binder	binding result (human C1q protein)	binding result (protein G agarose)
mA116huFc Ab (Fc fusion, also called recombinant mA116huFc Ab; 70 kDa protein) MRGSHHHHHHGMASMTGGQQMGRDLYDDDDKDRWGSELEICSWYHGIPLVVPFYAAQPAMAQVQLQESGPELVKPGASVKISCKASGYTFTDYHVHWVKGKPGQGLEWIGMTYPGFDNTNYSETFKGKATLTVDTSSNTVYMQLSSLTSEDTAVYFCARGVGLDYWGQGTTVTVSSGGGGSGGGGSGGGGSDIELTQSPNSLSTSIGDRIRITCKASQDVDTAVGWYQQRPGQSPKLLIFWSSTRHTGVPDRFTGSGSGTDFTLTISNVQSEDLADYFCHQYSSYPFTFGSGTKLEIKRAAAGCLVKDYFPEPVTVSWNSGALTSGVHTFPAVLQSSGLYSLSSVVTVPSSSLGTQTYICNVNHKPSNTKVDKRVEPKSCDKTHTCPPCPAPELLGGPSVFLFPPKPKDTLMISRTPEVTCVVVDVSHEDPEVKFNWYVDGVEVHNAKTKPREEQYNSTYRVVSVLTVLHQDWLNGKEYKCKVSNKALPAPIEKTISKAKGQPREPQVYTLPPSRDELTKNQVSLTCLVKGFYPSDIAVEWESNGQPENNYKTTPPVLDSDGSFFLYSKLTVDKSRWQQGNVFSCSVMHEALHNHYTQKSLIRLLTKPERKLSWLLPPLSNN	binds	–
mA116 scFv Ab (scFv, also called repaired A116 scFv Ab) scFv: QVQLQESGPELVKPGASVKISCKASGYTFTDYHVHWVKGKPGQGLEWIGMTYPGFDNTNYSETFKGKATLTVDTSSNTVYMQLSSLTSEDTAVYFCARGVGLDYWGQGTTVTVSSGGGGSGGGGSGGGGSDIELTQSPNSLSTSIGDRIRITCKASQDVDTAVGWYQQRPGQSPKLLIFWSSTRHTGVPDRFTGSGSGTDFTLTISNVQSEDLADYFCHQYSSYPFTFGSGTKLEIK	–	no binding
